# Assay results reported in US20020019014A1, “Methods of identifying prosaposin receptor agonists and antagonists” (priority 1997, published 2002).
# “Also recorded” adds a separate entry of the source. Read-outs that look alike come from different tables or passages of the source.
# B1: saposin A: saposin from prosaposin; inactive compound that binds the receptor without stimulating effector functions (protein, UniProt P07602 60-142, looked up)
# Saposin-A: SLPCDICKDVVTAAGDMLKDNATEEEILVYLEKTCDWLPKPNMSASCKEIVDSYLPVILDIIKGEMSRPGEVCSALNLCESLQ
# modifications: Saposin-A
# B2: prosaposin: 70 kilodalton glycoprotein, precursor of saposins A, B, C and D (protein, UniProt P07602 17-524, looked up)
# pro-form: GPVLGLKECTRGSAVWCQNVKTASDCGAVKHCLQTVWNKPTVKSLPCDICKDVVTAAGDMLKDNATEEEILVYLEKTCDWLPKPNMSASCKEIVDSYLPVILDIIKGEMSRPGEVCSALNLCESLQKHLAELNHQKQLESNKIPELDMTEVVAPFMANIPLLLYPQDGPRSKPQPKDNGDVCQDCIQMVTDIQTAVRTNSTFVQALVEHVKEECDRLGPGMADICKNYISQYSEIAIQMMMHMQPKEICALVGFCDEVKEMPMQTLVPAKVASKNVIPALELVEPIKKHEVPAKSDVYCEVCEFLVKEVTKLIDNNKTEKEILDAFDKMCSKLPKSLSEECQEVVDTYGSSILSILLEEVSPELVCSMLHLCSGTRLPALTVHVTQPKDGGFCEVCKKLVGYLDRNLEKNSTKQEILAALEKGCSFLPDPYQKQCDQFVAEYEPVLIEILVEVMDPSFVCLKIGACPSAHKPLLGTEKCIWGPSYWCQNTETAAQCNAVEHCKRHVWN
# modifications: pro-form
# notes: 70 kilodalton glycoprotein, precursor of saposins A, B, C and D
# B3: saposin C: heat-stable glycoprotein generated by proteolytic processing of prosaposin (protein, UniProt P07602 311-390, looked up)
# Saposin-C: SDVYCEVCEFLVKEVTKLIDNNKTEKEILDAFDKMCSKLPKSLSEECQEVVDTYGSSILSILLEEVSPELVCSMLHLCSG
# modifications: Saposin-C
# How the values were obtained:
# prosaposin receptor [1] = conditions: cited from earlier work
# prosaposin receptor [2] = conditions: cited from earlier work; remark: listed apart in the source
# MAPK = assay: MAP kinase (MAPK) phosphorylation assay; type: cell-based; conditions: after binding to the prosaposin receptor
# Experimental: PC12 cells are grown to 85% confluence in DME high glucose media containing 10% FBS, 5% horse serum, 100 U/ml penicillin, 100 μg/ml streptomycin and 250 pg/ml fimgizone. Approximately 2×10^6 cells per 100 mm plate are placed in serum-free media for 24 hours prior to addition of compounds capable of binding to the prosaposin receptor. Positive controls are as described previously. Cells are stimulated with the compound of interest, then lysed on ice in 1 ml of 50 mM Tris-HCl, pH 8.0, 150 mM NaCl, 1 mM EGTA, pH 8.0, 100 mM NaF, pH 8.0, 10% glycerol, 1.5 mM MgCl2. 1% (v/v) Triton X-100, 1 mM sodium orthovanadate, 1 mM phenylmethylsulfonyl fluoride (PMSF), 10 μg/ml leupeptin, 20 μg/ml aprotinin. Unsolubilized materials are removed by ultracentrifugation at 12,000 x g at4° C.
# Equal amounts of cell lysates are resolved by sodium dodecyl sulfate-polyacrylamide gel electrophoresis (SDS-PAGE) and transferred to a PVDF membrane (Millipore, Bedford, Mass.). Phosphorylated MAPK is identified using PhosphoPlus™ MAPK antibody and an alkaline phosphatase conjugated secondary antibody that emits light in the presence of a chemiluminescent substrate (New England Biolabs, Beverly, Mass.). […] Densitometric data are expressed as a ratio of MAPK-P absorbance units divided by MAPK-C absorbance units. […]
# [3] = tested on: NS20Y neuroblastoma cells; conditions: as described in U.S. Pat. No. 5,571,787 and PCT/US94/08453; cited from earlier work
# several proteins = conditions: cited from earlier work
# NS20Y cells = conditions: as described in U.S. Pat. No. 5,571,787 and PCT/US94/08453, cited from earlier work
# [4] = tested on: Newborn mouse cerebellar explants; conditions: as described in U.S. Pat. No. 5,571,787 and PCT/US94/08453; cited from earlier work
Molecule,binding to receptor (prosaposin receptor [1]),stimulation of receptor effector functions (prosaposin receptor [2]),phosphorylation of MAPK (MAPK),neurite outgrowth [3],incorporation of 32P into several proteins (several proteins),prevention of neural cell death (NS20Y cells),prevention of neural cell death (NS20Y cells; listed as Prosaposin),stimulation of myelination [4]
B1,binds to the receptor,without stimulating any of its effector functions,,,,,,
B2,binds to a cell surface receptor,,stimulate phosphorylation of MAPK,induce neurite outgrowth,stimulates incorporation of ^32P into several proteins,prevent neural cell death,prevent neuronal cell death,stimulate myelination
B3,,,stimulate phosphorylation of MAPK,induce neurite outgrowth,,prevent neuronal cell death; also recorded: prevent neural cell death,,stimulate myelination
